Laboratory results: article PMC3475689, “Leishmania donovani Argininosuccinate Synthase Is an Active Enzyme Associated with Parasite Pathogenesis” (PLoS Neglected Tropical Diseases, 2012)

Experiments:
LdASS (V5His-LdASS^WT) = target: T1, LdASS (V5His-LdASS^WT) (Leishmania donovani, UniProt H9BG20); assay: malachite green Pi release, pyrophosphatase-coupled; assay type: biochemical; settings: read-out: % inhibition at 1 mM
T1 construct: full length (419 residues predicted, 46 kDa), N-terminal V5 and His6 tags kept; overexpressed in L. donovani amastigotes, Ni-NTA pull-down, assayed on beads; tetramer inferred from other ASS; CBZ34226.1 (BPK282A1) stated identical

[1] = target: T2, LdPEX5, PTS1 receptor protein peroxin 5 of Leishmania donovani, recombinant (Leishmania donovani, UniProt A0A3S7X906 1-625); assay: ELISA; plates coated with 100 µL of 10 µg/mL LdIMPDH or LdASS variant in PBS, 4°C, 16 h; blocked with 2% BSA; purified LdPEX5 at 0.01-400 nM; bound LdPEX5 detected with anti-LdPEX5 polyclonal antisera; apparent Kd; settings: both partners purified
T2 construct: Peroxin 5 (LdPEX5), the PTS1 receptor of Leishmania donovani; construct not described here; also called receptor peroxin 5; glycosomal PTS1 targeting receptor protein
T2 sequence (looked up): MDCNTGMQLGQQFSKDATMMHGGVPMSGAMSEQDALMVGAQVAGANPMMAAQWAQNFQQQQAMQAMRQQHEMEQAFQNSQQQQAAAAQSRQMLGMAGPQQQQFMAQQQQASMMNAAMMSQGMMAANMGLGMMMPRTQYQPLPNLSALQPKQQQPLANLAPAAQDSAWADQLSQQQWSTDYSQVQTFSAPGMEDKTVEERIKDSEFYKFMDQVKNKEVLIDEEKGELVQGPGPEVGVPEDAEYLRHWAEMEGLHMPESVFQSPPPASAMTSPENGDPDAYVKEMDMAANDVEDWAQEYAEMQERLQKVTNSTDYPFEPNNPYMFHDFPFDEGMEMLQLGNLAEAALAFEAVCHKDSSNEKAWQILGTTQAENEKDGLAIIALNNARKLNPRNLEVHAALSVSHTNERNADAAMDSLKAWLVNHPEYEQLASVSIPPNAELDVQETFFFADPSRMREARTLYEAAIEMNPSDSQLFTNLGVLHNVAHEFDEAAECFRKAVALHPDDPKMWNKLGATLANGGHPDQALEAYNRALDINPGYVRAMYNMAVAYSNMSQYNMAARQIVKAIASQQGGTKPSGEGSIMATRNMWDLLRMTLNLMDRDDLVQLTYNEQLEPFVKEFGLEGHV

[2] = target: V5His-LdASS^G128S, recombinant Leishmania donovani argininosuccinate synthase G128S with N-terminal V5 epitope and hexahistidine tags (Leishmania donovani); assay: as above

CC(N)(CC(=O)O)C(=O)O (racemic) [MDLA, methyl-D-L-Aspartic acid]
inhibition at 1000 µM (LdASS (V5His-LdASS^WT)): ~60%

B1: LdIMPDH, glycosomal PTS1 protein inosine monophosphate dehydrogenase of Leishmania donovani, recombinant (enzyme, UniProt P21620 1-514, looked up)
chain: MATNNANYRIKTIKDGCTAEELFRGDGLTYNDFIILPGFIDFGAADVNISGQFTKRIRLHIPIVSSPMDTITENEMAKTMALMGGVGVLHNNCTVERQVEMVKSVKAYRNGFISKPKSVPPNTPISNIIRIKEEKGISGILVTENGDPHGKLLGIVCTKDIDYVKNKDTPVSAVMTRREKMTVERAPIQLEEAMDVLNRSRYGYLPIVNENDEVVNLCSRRDAVRARDYPHSTLDKSGRLICAAATSTRPEDKRRVAALADVGVDVLVLDSSQGNTIYQIAFIKWVKSTYPHLEVVAGNVVTQDQAKNLIDAGADGIRIGMGSGSICITQEVLACGRPQGTAVYKVAQYCASRGVPCTADGGLRQVGDICKALAIGANCAMLGGMLSGTTETPGEYFFKGGVRLKVYRGMGSLEAMSQGKESGKRYLSENEAVQVAQGVSGNVVDKGSAAKLIAYVSKGLQQSAQDIGEISFDAIREKMYAGQVLFSRRSPTAQGEGGVHSLHSYEKKLFAAKM
notes: Inosine monophosphate dehydrogenase (LdIMPDH) of Leishmania donovani, with the C-terminal tripeptide PTS1 signal Ala-Lys-Met; construct not described here
Kd [1]: ~5 nM

B2: V5His-LdASS^WT, recombinant Leishmania donovani argininosuccinate synthase with N-terminal V5 epitope and hexahistidine tags (enzyme, UniProt H9BG20 1-418, looked up)
chain: MPATATEVVCGKKPRVVLAYSGGLDTSVIIPWLKENYDYEVIACCANVGQGAGEIDGLEEKAKKSGASKLYLLDLREEYVTDYIFPTLKAGATYEGKYMLGTSHARPLIAKHLVEVAHKEGAVAICHGATGKGNDQVRFELAVMALDPSLKCVAPWREWNIKSREDAIDYAEAHGVPVPCTKSDLYSRDRNLWHISHEGMDLEDPANEPAYARLLRLCNTVEKAPDEAEYVAVQFEKGIPVAVNGRKMSSVELVEELNALGGKHAIGIEDIVEDRLVGMKSRGVYETPAGTILYKALDMLESLCLDRDTQSFKRQSAVRFSELVYDGKWFTPLRESMSAMFDQMAETVTGEATLKLYKGNLVPAGAQSPYSLYNKNIASFGDSKHLYNHHDAEGFIRLFGLPLRVRSMMKAKEMPSSL
notes: Argininosuccinate synthase (LdASS) of Leishmania donovani strain Ld1S2D; predicted protein identical to L. infantum LinJ.23.0300 and L. donovani BPK282A1 CBZ34226.1; C-terminal Ser-Ser-Leu (PTS1) left free; Made from the pCRT7 plasmid with primers F3/R3 and ligated into pEXP-5-NT/TOPO; also called rLdASS WT, N-terminal tagged; pEXP5-V5HisLdASS^WT; source: E. coli BL21 (DE3) pLysS, purified …
Kd [1]: ~5 nM

B3: LdPEX5, PTS1 receptor protein peroxin 5 of Leishmania donovani, recombinant (receptor)
chain: T2 sequence (looked up)
Kd [2]: 5 nM
